Test results published in patent US20130035289A1, “PHARMACEUTICAL COMPOSITION FOR TREATMENT OF THROMBOSIS-RELATED DISEASES COMPRISING A FRAGMENT OF PROLACTIN (PRL)-GROWTH HORMONE (GH)-PLACENTAL LACTOGEN (PL)-FAMILY PROTEIN” (UNIVERSITE DE LIEGE, priority 2010, published 2013).

T1: PAI-1 (Mus musculus, UniProt P22777)
T1 construct: from tissue; host or cells: BalbC Njrj mice, in vivo (blood)
T1 sequence (P22777 23-402): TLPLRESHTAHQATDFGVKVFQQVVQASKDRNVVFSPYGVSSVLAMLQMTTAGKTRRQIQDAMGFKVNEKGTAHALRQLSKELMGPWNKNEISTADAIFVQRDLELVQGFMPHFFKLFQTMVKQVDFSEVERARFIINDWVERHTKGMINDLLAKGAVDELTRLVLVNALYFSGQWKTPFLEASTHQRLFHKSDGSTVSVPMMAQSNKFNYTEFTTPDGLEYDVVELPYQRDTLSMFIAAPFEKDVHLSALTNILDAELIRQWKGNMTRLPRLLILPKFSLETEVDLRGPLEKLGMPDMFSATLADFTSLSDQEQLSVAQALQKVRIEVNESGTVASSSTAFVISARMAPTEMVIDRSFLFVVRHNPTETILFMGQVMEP

B1: 14K hGH: 14K N-terminal fragment of human growth hormone, recombinant, produced and purified from E. coli (protein)
chain: MFPTIPLSRLFDNAMLRAHRLHQLAFDTYQEFEEAYIPKEQKYSFLQNPQTSLSFSESIPTPSNREETQQKSNLELLRISLLLIQSWLEPVQFLRSVFANSLVYGASDSNVYDLLKDLEEGIQTLMGRLEDGSP
B2: 16K hPRL: 16K N-terminal human prolactin fragment, recombinant, produced and purified from E. coli (protein)
chain: LPICPGGAARCQVTLRDLFDRAVVLSHYIHNLSSEMFSEFDKRYTHGRGFITKAINSCHTSSLATPEDKEQAQQMNQKDFLSLIVSILRSWNEPLYHLVTEVRGMQEAPEAILSKAVEIEEQTKRLLEGMELIVSQVHP

Key:
PAI-1 [1] = target: T2, PAI-1 (Homo sapiens, UniProt P05121); test: Inhibition of PAI-1 anti-proteolytic activity, uPA/plasminogen chromogenic (colorimetric) assay; format: biochemical; details: uPA, bovine plasminogen, PAI-1, absorbance 405 nm
T2 construct: gift of Pr; P. Declerck
T2 sequence (P05121 24-402): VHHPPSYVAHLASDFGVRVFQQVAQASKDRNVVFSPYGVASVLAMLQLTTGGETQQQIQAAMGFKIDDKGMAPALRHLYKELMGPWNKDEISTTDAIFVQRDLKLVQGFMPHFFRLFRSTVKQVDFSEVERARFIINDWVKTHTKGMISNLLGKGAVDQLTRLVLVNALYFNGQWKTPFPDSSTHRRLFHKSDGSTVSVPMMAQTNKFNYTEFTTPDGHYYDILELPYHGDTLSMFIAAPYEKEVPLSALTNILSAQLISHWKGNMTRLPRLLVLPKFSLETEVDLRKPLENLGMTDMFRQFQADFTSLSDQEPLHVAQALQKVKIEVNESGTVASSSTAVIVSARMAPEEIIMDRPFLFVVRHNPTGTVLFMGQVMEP
Experimental: The main physiological function of PAI-1 is to inhibit uPA and tPA proteolytic activity. […] A chromogenic substrate for plasmin (Spectrozyme PL: 0.5 mM. American Diagnostica INC) in PBS was added to the mixture in 96-well microtitration plates and kept at room temperature. The release of free p-nitro-aniline from the chromogenic substrate was measured spectrophotometrically. The activity of plasmin was determined as the absorbance at 405 nm.

PAI-1 [2] = target: T2, PAI-1; test: In vitro clot lysis assay in pooled normal human plasma with added PAI-1 and tPA; format: biochemical; details: 3 μM protein, recombinant PAI-1, tPA
Experimental: Clot lysis was performed as follows: pooled normal plasma were used in citrated tube. Recombinant wild type PAI-1 was incubated in the presence or in the absence of 16K hPRL (3 μM), 14K hGH (3 μM) or different peptides (25 μM) for 10 min at 37° C., before to be added to diluted plasma in tris tween buffer (75 μl of plasma in 200 μl of 10 mM TRIS pH 7.5, 0.01% tween 20), followed by a second incubation for 10 min at 37° C. tPA was added to each tube at the end to reach a final volume of […]. Aliquots from each tube (80 μl) were added in duplicate to 96 wells, each containing 20 μl CaCl2 to give the following final concentration per well of 10 mM. Clot formation and dissolution were monitored at RT measuring turbidity at 405 nm in 5 min intervals.

PAI-1 [3] = target: T2, PAI-1; test: Gal4 yeast two-hybrid system; format: binding
PAI-1 [4] = target: T2, PAI-1; test: Co-immunoprecipitation with anti-PAI-1 antibody and Western blot, human PAI-1; format: binding; details: for complex with recombinant wild type PAI-1 (co-immunoprecipitation): 10 min at 37° C.; for complex with endogenous PAI-1 from HUVEC culture medium: conditioned medium of HUVEC; for interaction with PAI-1 in plasma samples: human plasma
Experimental: (§1) The interaction was further confirmed by pull-down affinity assays. For the immunoprecipitation 4 μg of recombinant 16K hPRL or 14 hGH were mixed with 3 μg of recombinant wt PAI-1, 500 μl of conditioned media from HUVEC cells, 300 μl of human plasma or 100 μl of mouse plasma. The mixtures were incubated for 10 min at 37° C. 6 μg of mouse monoclonal antibody against PAI-1 (clone 33H1F7, recognize human and mouse PAI-1) was added to each tube and incubated overnight at 4° C. under rotation. For the experiments with mice expressing 16K hPRL, 300 μl of plasma from mice injected with Null-Ad or 16K-Ad adenovirus were collected 5 days after virus injection, and immunoprecipitation was performed as described above with same PAI-1 monoclonal antibody (33H1F7). Fifty microliters of protein A agarose was added to the mix and incubated overnight at 4° C. under rotation. After centrifugation for 1 min at 6000 rpm the supernatants were discarded and the pellets (containing the beads) were washed 5 times with PBS. After a new centrifugation, the beads were resuspended in 30 μl 1×β-mercaptoethanol loading buffer and boiled at 100° C. for 5 min, then left on ice for 5 min. The beads were centrifuged for 5 min at 4° C., then the supernatants were subjected to SDS-PAGE (12% acrylamide) for Western blot analysis.
(§2) For Western Blot Analysis cytoplasmic cell lysate, samples of different CoIP and mouse plasma were separated by SDS-PAGE (12% and 10%) and transferred to a polyvinylidene fluoride membrane (Milipore Corp., Bedford, Mass.). Blots were blocked overnight with 5% milk in Tris-buffered saline with 0.1% Tween 20 and probed for 1 h at RT with primary antibodies: rabbit polyclonal anti-hPRL (DAKO) or rabbit polyclonal anti hGH (home made). After three washes with Tris-buffered saline containing 0.1% Tween 20, antigen-antibody complexes were detected with peroxidase-conjugated goat anti-rabbit secondary antibody and an enhanced fluoro-chemiluminescent system (ECL-plus; Amersham Biosciences, Arlington Heights, Ill.).

PAI-1 [5] = target: T1, PAI-1; test: Co-immunoprecipitation with anti-PAI-1 antibody and Western blot, mouse PAI-1; format: binding; details: for interaction with PAI-1 in plasma samples: mouse plasma
Experimental: as §1, §2

endothelial cells [6] = test: Endothelial cell proliferation (BrdU incorporation); format: cell-based, bovine; details: for anti-proliferative function: down-regulation of PAI-1 expression by si-RNA; for anti-proliferation effect: recombinant wild type PAI-1 added to culture medium
Experimental: The cells were plated in 96-well culture plates at a density of 2,500 cells per well in 10% FCS/DMEM and allowed to adhere for 24 h. Then complete medium was replaced with SFM for 24 h. […] Proliferation was analysed 24 h later by measuring BrdU incorporation by means of the Cell Proliferation ELISA, BrdU (Colorimetric) (Roche, Clinical Laboratories, Indianapolis, Ind.). […] ID NO: 35); PAI-1 […] ID NO: 36).

ABAE cells = test: Endothelial cell migration (wound assay); format: cell-based, bovine; details: for anti-migratory function: down-regulation of PAI-1 expression by si-RNA
Experimental: A layer of confluent ABAE cells in a 48-well tissue culture dish coated with 0.2% gelatin was wounded with a head of 200-μl tips. The experiment was performed in the presence of 50 ng/ml VEGF and 10 ng/ml bFGF. […] ID NO: 35); PAI-1 […] ID NO: 36).

endothelial cells [7] = test: Endothelial cell adhesion assay on vitronectin; format: cell-based, bovine; details: for increase of cell adhesion: absence of PAI-1 (si-RNA); for pro-adhesion effect: recombinant wild type PAI-1 added to culture medium
From the text: ID NO: 35); PAI-1 […] ID NO: 36).

[8] = PAI-1 si-RNA transfected cells plus added human PAI-1
[9] = recombinant wild type PAI-1 added to culture medium

Molecule	inhibition of PAI-1 function to inhibit uPA and tPA proteolytic activity (PAI-1 [1])	clot lysis in human plasmas (PAI-1 [2])	interaction with PAI-1 in yeast two-hybrid system (PAI-1 [3])	complex with recombinant wild type PAI-1 (co-immunoprecipitation) (PAI-1 [4])	complex with endogenous PAI-1 from HUVEC culture medium (PAI-1 [4])	interaction with PAI-1 in plasma samples (PAI-1 [4])	interaction with PAI-1 in plasma samples (PAI-1 [5])	anti-proliferative function (endothelial cells [6])	anti-proliferation effect (endothelial cells [6])	anti-migratory effect (ABAE cells; [8])	anti-migratory function (ABAE cells)	anti-migratory effect (ABAE cells; [9])	increase of cell adhesion (endothelial cells [7])	pro-adhesion effect (endothelial cells [7])	complex with endogenous murine PAI-1 in circulation (PAI-1 [5]; plasma of wild type mice 5 days after 16K-Ad injection)
B1	significantly inhibited	increased significantly	found to interact	14K GH/PAI-1	able to form a complex	interaction was also demonstrated	interaction was also demonstrated	reduced significantly	reduced significantly	restored	reduced significantly	reduced significantly	not seen	reduced significantly	
B2	significantly inhibited	increased significantly	interacts	formation of 16K PRL/PAI-1	able to form a complex	interaction was also demonstrated	interaction was also demonstrated	reduced significantly	reduced significantly	restored	reduced significantly	reduced significantly	not seen	reduced significantly	complex formation
